Experimental data from FireProtDB (doi:10.1006/jmbi.2000.3958).

Conditions: Schizosaccharomyces pombe (strain 972 / ATCC 24843); pH 7.5; 25 °C; Urea; Fluorescence; Tris 50 mM; whole UniProt chain shown

B1: Cyclin-dependent kinases regulatory subunit wild type, P08463 (protein)
chain: MSKSGVPRLLTASERERLEPFIDQIHYSPRYADDEYEYRHVMLPKAMLKAIPTDYFNPETGTLRILQEEEWRGLGITQSLGWEMYEVHVPEPHILLFKREKDYQMKFSQQRGG
denaturant m value: 1.63 kcal/mol/M | denaturant midpoint (higher = more stable): 4.42 M
